The chains are these.
B1: Cell division control protein 24 (Saccharomyces cerevisiae), P11433 (parent)
chain: MAIQTRFASGTSLSDLKPKPSATSISIPMQNVMNKPVTEQDSLFHICANIRKRLEVLPQLKPFLQLAYQSSEVLSERQSLLLSQKQHQELLKSNGANRDSSDLAPTLRSSSISTATSLMSMEGISYTNSNPSATPNMEDTLLTFSMGILPITMDCDPVTQLSQLFQQGAPLCILFNSVKPQFKLPVIASDDLKVCKKSIYDFILGCKKHFAFNDEELFTISDVFANSTSQLVKVLEVVETLMNSSPTIFPSKSKTQQIMNAENQHRHQPQQSSKKHNEYVKIIKEFVATERKYVHDLEILDKYRQQLLDSNLITSEELYMLFPNLGDAIDFQRRFLISLEINALVEPSKQRIGALFMHSKHFFKLYEPWSIGQNAAIEFLSSTLHKMRVDESQRFIINNKLELQSFLYKPVQRLCRYPLLVKELLAESSDDNNTKELEAALDISKNIARSINENQRRTENHQVVKKLYGRVVNWKGYRISKFGELLYFDKVFISTTNSSSEPEREFEVYLFEKIIILFSEVVTKKSASSLILKKKSSTSASISASNITDNNGSPHHSYHKRHSNSSSSNNIHLSSSSAAAIIHSSTNSSDNNSNNSSSSSLFKLSANEPKLDLRGRIMIMNLNQIIPQNNRSLNITWESIKEQGNFLLKFKNEETRDNWSSCLQQLIHDLKNEQFKARHHSSTSTTSSTAKSSSMMSPTTTMNTPNHHNSRQTHDSMASFSSSHMKRVSDVLPKRRTTSSSFESEIKSISENFKNSIPESSILFRISYNNNSNNTSSSEIFTLLVEKVWNFDDLIMAINSKISNTHNNNISPITKIKYQDEDGDFVVLGSDEDWNVAKEMLAENNEKFLNIRLY
partner: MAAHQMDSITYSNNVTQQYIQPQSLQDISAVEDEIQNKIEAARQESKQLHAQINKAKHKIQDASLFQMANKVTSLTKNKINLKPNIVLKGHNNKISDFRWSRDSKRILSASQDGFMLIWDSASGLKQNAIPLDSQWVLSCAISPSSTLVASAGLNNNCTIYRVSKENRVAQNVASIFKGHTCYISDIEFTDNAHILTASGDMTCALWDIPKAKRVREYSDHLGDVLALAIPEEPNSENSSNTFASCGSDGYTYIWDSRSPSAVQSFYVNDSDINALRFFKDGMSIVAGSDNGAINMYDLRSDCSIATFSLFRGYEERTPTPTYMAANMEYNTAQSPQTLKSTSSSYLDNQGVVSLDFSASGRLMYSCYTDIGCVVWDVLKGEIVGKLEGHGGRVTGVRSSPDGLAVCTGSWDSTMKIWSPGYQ

The assay covers variants of B1. The settings on record: with gbb_yeast STE4, P18851.
Take S189F: the “effect of a mutation on the interaction” value is given as “disrupting interaction”.

These data come from IntAct's records for PubMed 9428768.
